{"source": "patent US12448423", "about": "(Xencor, dated 2025)", "binders": {"B1": {"name": "humanized OKT8 variant (H2L1) (antibody)", "heavy": "QVQLVQSGAEVKKPGASVKVSCKASGFNIKDTYIHWVRQAPGKGLEWMGRIDPANDNTLYASKFQGRVTITADTSINTAYMELSRLRSDDTAVYYCGRGYGYYVFDHWGQGTTVTVSSASTKGPSVFPLAPSSKSTSGGTAALGCLVKDYFPEPVTVSWNSGALTSGVHTFPAVLQSSGLYSLSSVVTVPSSSLGTQTYICNVNHKPSNTKVDKKVEPKSCDKTHTCPPCPAPPVAGPSVFLFPPKPKDTLMISRTPEVTCVVVDVKHEDPEVKFNWYVDGVEVHNAKTKPREEQYNSTYRVVSVLTVLHQDWLNGKEYKCKVSNKALPAPIEKTISKAKGQPREPQVYTLPPSREQMTKNQVKLTCLVKGFYPSDIAVEWESNGQPENNYKTTPPVLDSDGSFFLYSKLTVDKSRWQQGNVFSCSVMHEALHNHYTQKSLSLSPGK", "light": "DIKMTQSPSSLSASVGDRVTITCRTSRSISQYLAWYQEKPGKTNKLLIYSGSTLQSGIPSRFSGSGSGTDFTLTISSLQPEDFATYYCQQHNENPLTFGAGTKLEIKRTVAAPSVFIFPPSDEQLKSGTASVVCLLNNFYPREAKVQWKVDNALQSGNSQESVTEQDSKDSTYSLSSTLTLSKADYEKHKVYACEVTHQGLSSPVTKSFNRGEC", "Fc": "EPKSSDKTHTCPPCPAPPVAGPSVFLFPPKPKDTLMISRTPEVTCVVVDVKHEDPEVKFNWYVDGVEVHNAKTKPREEEYNSTYRVVSVLTVLHQDWLNGKEYKCKVSNKALPAPIEKTISKAKGQPREPQVYTLPPSREEMTKNQVSLTCDVSGFYPSDIAVEWESDGQPENNYKTTPPVLDSDGSFFLYSKLTVDKSRWEQGDVFSCSVMHEALHNHYTQKSLSLSPGK", "notes": "also called OKT8_H2L1"}, "B2": {"name": "KYK-1.0 (anti-NKG2D antigen binding domain) (antibody, V domains shown)", "VH": "EVQLVESGGGVVQPGGSLRLSCAASGFTFSSYGMHWVRQAPGKGLEWVAFIRYDGSNKYYADSVKGRFTISRDNSKNTKYLQMNSLRAEDTAVYYCAKDRFGYYLDYWGQGTLVTVSS", "VL": "QPVLTQPSSVSVAPGETARIPCGGDDIETKSVHWYQQKPGQAPVLVIYDDDDRPSGIPERFFGSNSGNTATLSISRVEAGDEADYYCQVWDDNNDEWVFGGGTQLTVL", "notes": "also called KYK-1.0[NKG2D]_H1L1"}, "B3": {"name": "HIS-tagged human NKG2D (receptor, UniProt P26718 73-216, looked up)", "chain": "IWSAVFLNSLFNQEVQIPLTESYCGPCPKNWICYKNNCYQFFDESKNWYESQASCMSQNASLLKVYSKEDQDLLKLVKSYHWMGLVHIPTNGSWQWEDGSILSPNLLTIIEMQKGDCALYASSFKGYIENCSTPNTYICMQRTV", "notes": "Captured on HIS1K biosensors; not shown: HIS tag"}}, "key": {"[1]": {"biological_target": "T1, cynomolgus CD8 (captured on the Octet biosensor) (cynomolgus)", "T1 construct": "Construct not described; also called cyno CD8; cyno CD8a", "assay": "method not stated in the sentence (Octet in the same example)"}, "[2]": {"biological_target": "T1, cynomolgus CD8 (captured on the Octet …)", "assay": "Octet (BLI); cynomolgus CD8 captured, dipped into multiple concentrations of the one-arm mAb"}, "[3]": {"biological_target": "T2, human CD8 (captured on the Octet biosensor) (human, UniProt P01732 22-182, limits assumed)", "T2 construct": "Construct not described; also called recombinant human CD8a", "T2 sequence (P01732 22-182 limits assumed)": "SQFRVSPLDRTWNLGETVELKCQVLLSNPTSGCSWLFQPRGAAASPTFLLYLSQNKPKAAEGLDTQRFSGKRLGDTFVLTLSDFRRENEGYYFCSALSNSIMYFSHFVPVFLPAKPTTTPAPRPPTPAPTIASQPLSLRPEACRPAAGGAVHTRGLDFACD", "assay": "Octet (BLI); human CD8 captured, dipped into multiple concentrations of the one-arm mAb"}, "[4]": {"biological_target": "T3, NKG2D (affinity ladder and epitope binning; construct not stated) (UniProt P26718 73-216, limits assumed)", "T3 sequence (looked up)": "B3 chain", "assay": "affinity ladder; method and format not stated"}, "XENP27145": {"biological_target": "T4, XENP27145 (human)", "T4 construct": "also called NKG2D-targeted IL-15(N4D/N65D)/Rα-Fc fusion with targeting arm based on MS", "assay": "Octet (BLI): HIS-tagged human NKG2D captured on HIS1K biosensors, dipped into multiple concentrations of the fusion; global fit, 1:1 Langmuir model"}, "XENP27197": {"biological_target": "T5, XENP27197 (human, UniProt P0DOX7 1-214)", "T5 construct": "scIL-15/Rα x Fab format; also called NKG2D-targeted IL-15/Rα-Fc fusion based on 1D7B4 and IL-15(N4D/N65D) variant", "assay": "Octet (BLI): HIS-tagged human NKG2D captured on HIS1K biosensors, dipped into multiple concentrations of the fusion; global fit, 1:1 Langmuir model"}}}
{"binder": "B1", "values": [{"measurement": "Kd", "setting": "[1]", "value": 200, "unit": "nM"}, {"measurement": "Kd", "setting": "[2]", "value": 202, "unit": "nM"}, {"measurement": "koff", "setting": "[2]", "value": 0.0699, "unit": "s⁻¹"}, {"measurement": "kon", "setting": "[2]", "value": 347000, "unit": "M⁻¹ s⁻¹"}, {"measurement": "Kd", "setting": "[3]", "value": 12, "unit": "nM"}, {"measurement": "koff", "setting": "[3]", "value": 0.006, "unit": "s⁻¹"}, {"measurement": "kon", "setting": "[3]", "value": 500000, "unit": "M⁻¹ s⁻¹"}]}
{"binder": "B2", "values": [{"measurement": "Kd", "setting": "[4]", "value": 170, "unit": "nM"}]}
{"binder": "B3", "values": [{"measurement": "Kd", "setting": "XENP27145", "value": 2.45, "unit": "nM"}, {"measurement": "koff", "setting": "XENP27145", "value": 0.00123, "unit": "s⁻¹"}, {"measurement": "kon", "setting": "XENP27145", "value": 502000, "unit": "M⁻¹ s⁻¹"}, {"measurement": "Kd", "setting": "XENP27197", "value": 8.66, "unit": "nM"}, {"measurement": "koff", "setting": "XENP27197", "value": 0.00325, "unit": "s⁻¹"}, {"measurement": "kon", "setting": "XENP27197", "value": 375000, "unit": "M⁻¹ s⁻¹"}]}
